Consider 11 sequences from the DeepSol protein solubility set.

A short description of this data set: soluble on expression in E. coli; label from the status in PepcDB or PDB records.
For the sequence “MKAANSGRTAAALECFERVVKLQSTPVNWSYLAFCVARERQQFEHATRLCEEAVRREPRSSVLYLNLGKVYLLSGRKDDAIRTFRQGLLYERNTLIESELRRLGLRKPPVLNFLAREHPVNKYLGIMLKKLKIRLEHHHHHH”, the “soluble on expression in E. coli” value was “not soluble”. As for “MGSDKIHHHHHHAQQPVELPLWPDGAPNSNGLTGGEKEVSPHRLSNVTAPTITVYRAPQPNGMAVIMCPGGGYSRLAMDHEGHDMASWFCGQGITYVVLKYRMPNGHCEVPLSDAERAIRIVREHAGEWNIHPRKIGIMGASAGGHLASTLATHYSAASRPDFQILLYPVVTMTQSTHGGSRKELLGGNPTAEQEVLFSNELQVTSDTPQAFIVLSSDDGAVPPSNGVNYYLALQKNNVPASLHVYPTGGHGWGFRDNFKYKQQWTQELEKWLREGVVFPKETAPMLRIGKTYLGTKYVANTLDQGTEEKLVILPQTVDCLTFVEYTLAQAMGSSFADNLQKIRYRDGVIDGYTSRLHYTSDWIENGVRQGFLEDVTAQNSTQTTKLSLSYMSTHPQKYRQLADSPENVKRMAEHEKALSGKKVHWLPKGKLPDAGLPWIMDGDIIAITTNLPGLDVAHVGMAEYINGKLHLLHASSTLGKVVVSEEPLSQMLRNNKSWSGIRVVRMSHP”, the “soluble on expression in E. coli” value was “not soluble”.

Regarding “MREIVHVQAGQCGNQIGAKFWEVISDEHGIQPDGTYKGESDLQLERINVYYNEANGGKYVPRAVLVDLEPGTMDSVRSGPFGQLFRPDNFVFGQSGAGNNWAKGHYTEGAELVDNVLDVVRKEAEGCDCLQGFQLTHSLGGGTGSGMGTLLISKIREEYPDRIMSSFSVVPSPKVSDTVVEPYNATLSVHQLVENTDETFCIDNEALYDICFRTLKLSNPTYGDLNHLVSVTMSGVTTCLRFPGQLNADLRKLAVNMVPFPRLHFFMPGFAPLSAKGAQAYRALTVAELTQQMFDAKNMMAACDPRHGRYLTVAAMFRGRMSMREVDDQMMNVQNKNSSYFVEWIPNNVKTAVCDIPPRGLKMSATFIGNSTAIQELFKRISEQFTAMFRRKAFLHWYTGEGMDEMEFTEAESNMNDLVSEYQQYQEATAEEDGELDGTDGDAE”, the “soluble on expression in E. coli” value was “not soluble”. Turning to “MGSDKIHHHHHHMIRKIVEIDQEKCNGCGICVPACAEGAIRIENGKAVLAADNLCDGLGACLGECPLDAIRIIERDADEFDEAAVEAHLGQTSRESHHAAHQPAPVHGGCPGSRAMVLDRPATESVRDVPRQESRLRQWPVQLHLVPTSAPYFRNADLLIAADCVPFAYADFHREFLDGRAVVVGCPKLDDNRFYTEKLTELIRVNDLKSITVVRMEVPCCGGIVMAARQALAASSKDIPLREVTVGISGELKGA”, the “soluble on expression in E. coli” value is “not soluble”. Under “MGRIIILDENTANQIAAGEVVERPASVVKELVENSIDAGSTNISVEINNGGISFIKVVDNGSGIEEDDIEIAFERHATSKIRRASDLEAITSLGFRGEALASIASVSTVEVTSRPAHREYGRYVKIQGGTVLESGQVGCPAGTTFIVRDLFYNTPARFKFLKKDSTEAGYVSDIVSRIALGNPDISFRLINNKNTVIHTPGNNDLLSTIYSLYGKETAKECMEISYEDETVKITGYAGSPEIARANRNYQSIYLNKRYIKNKVISSAIDEAYKTYLMKNKFAFIVLYIELNPLLVDVNVHPTKMEVRFSREQEIFRAVYHAVNNALLSKTHIRNVSLKDSPKNYFKFEQSSKKEADYVQQRLDTDRKFSGYNYDEDFKTEKTNTSKSTWENLIVKESANINKRKDETIDEVINKNEVGDKNKVISEDEVINKDEVINKDKVINKDKVINKGEVVNKVNVNEVENESVDNLINGQISGLVNWAINEPINKTNDKLIEKSDGTALKGTGEECYNFDKSGYDNILKDVSDKPKDNRNDVDNNADTNFEKIRDGKDTRPQQDIERNVFLDARIIGQVFSTYILLQNEDDLIIIDQHAAHERIRFEELKEKYARNESLAQYLLTPVVIELTNQEIVFLEEEKELFNKLGFIFESFGNNSIILRSVPIPDEGVGVKEAFLEVVDFLMSKGRKYDKIIEEDALYQIACKSAVKANKKLDEIEIKAILDKLNMLQNPYTCPHGRPTVVKITKYEFEKMFKRIV” stands “not soluble”; under “MRTVSHPTPLRRAPVQRRSAERLTRILDACADLLDEVGYDALSTRAVALRADVPIGSVYRFFGNKRQMADALAQRNLERYAERVTERLTEAGDGGWRGALDTVLDEYLAMKRTAPGFSLIDFGNQIPVGDRHAVPNHRVAERLTELLSGYLGRRPDDDLRRVFLVAVETADTLVQLAFRVAPDGDEKIIEEARELLRAYLGRVLD”, “soluble”; under “MGSDKIHHHHHHMPTMIPAASRAMAVFEVFAREKRELSNSDMARLLSLPESSTSDLLHTLHSLGYLMRTTRTRRFYPTGRLSEIARQIAENDPLTTVAQEAIEQVSARTNESVFFGVLDGTAVKVMAVQASRLPLRYIIEVGYRAALHASALGKGLLGLLPPEEARETLAKSSLRAVTAHTVVDIDTLMAQVAKGRKRGWYEAHEEGSEGVHGLAVTGWLGGQAAGISLAGPAERMKKNHDAYLAALIEVRDALMSEE”, “not soluble”.

Regarding “MSERVSEEPGLDKGDRAEECELDDPELKAIRMRVREMEEEAERLKGLSGQDKSIGVSTRPCMQTTHSKMTAGAYTEGPPQPLSAEEKKEIDKRSVYVGNVDYGSTAQDLEAHFSSCGSINRITILCDKFSGHPKGYAYIEFAERNSVDAAVAMDETVFRGRTIKVLPKRTNMPGISSTDRGGFRGRPRGNRGNYQRGQRPRGRPFRGRGRPGPLNNPY”, the “soluble on expression in E. coli” value is on record as “soluble”.

With “MGSDKIHHHHHHMFSPTKLKEKRESQGLSQSQLASSLGISRVSYFNWESGKTKPNQNNLSKLSQILTVDPCYFESEYEIVETYLKLTEKNQKATLHYATELLNKQNEKVVDIPERFAYKVYEKLSAGTGTAYFDDGNYDTVYFNHQFDYDFASWVFGNSMEPTYENGSVALIKQTGFDYDGAIYAIDWDGQTYIKKVYREENGLRLVSLNRNYSDKFAPYDENPRIIGKIVGNFMPLED”, the “soluble on expression in E. coli” value was “not soluble”. Under “MLSGREMSMSHINYNHLYYFWHVYKEGSVVGAAEALYLTPQTITGQIRALEERLQGKLFKRKGRGLEPSELGELVYRYADKMFTLSQEMLDIVNYRKESNLLFDVGVADALSKRLVSSVLDAAVVEDEQIHLRCFESTHEMLLEQLSQHKLDMIISDCPIDSTQQEGLFSMKIGECGVSFWCTNPLPEKPFPACLEERRLLIPGRRSMLGRKLLNWFNSQGLNVEILGEFDDAALMKAFGATHNAIFVAPSLYANDFYNDDSVVEIGRVENVMEEYHAIFAERMIQHPAVQRICNTDYSALFTPASK” stands “not soluble”. “MNKNLKFTQMMIGISTMALSFGSIQTHVSAEETASYNILQMKPIGTETSKDEIVHATKADETLTFEERLKVGDFSQRPTLVMERDEIQLKQSYTLAELNKMPNSELIDTLSKISWNQITDLFQFNQDTKAFYQNKERMNVIINELGQRGRTFTKENSKGIETFVEVLRSAFYVGYYNNELSYLKERSFHEKCLPALKAIAKNPNFTLGTAEQDRVVAAYGKLIGNASSDTETVQYAVNVLKQYNDNLTTYVSDYAKGQAVYEIVKGIDYDIQSYLQDTNKQPNETMWYGKIDNFINEVNRIALVGNITNENSWLINNGIYYAGRLGKFHSNPYKGLEVITQAMSLYPRLSGPYFVAVEQIKTNYGGKDYSGKAVDLQKIREEGKRQYLPKTYTFDDGSIVFKTGDKVTEEKIKRLYWAAKEVKAQYHRVIGNDKALEPGNADDVLTIVIYNNPDEYQLNRQLYGYETNNGGIYIEEKRTFFTYERTPKQSIYSLEELFRHEFTHYLQGRYEVPGLFGSGEMYQNERLTWFQEGNAEFFAGSTRTNNVVPRKSMISGLSSDPASRYTAKQTLFSKYGSWDFYKYSFALQSYLYNHQFDTFDKLQDLIRVNDVKNYDSYRESLSNNTQLNAEYQAYMQQLIDNQDKYNVPQVTNDYLIQHAPKPLAEVKNEIVDVANIKDAKITKYESQFFNTFTVEGKYTGGTSKGESEDWKTMSKQVNRTLEQLSQKGWSGYKTVTAYFVNYRVNAANQFEYDIVFHGVATEEKEKTNTIVNMNGPYSGIVNEEIQFHSDGTKSENGKVTSYLWNFGDGTTSTEANPTHVYEEKGTYTVELTVKDRRGKESKEQTKVTVKQDPQTGEFHEEEKVLLFNTLVKGNLVTPDQTDVYTFDVTDTKEVDISVVNEQNIGMTWVLYHESDMQNYVACGEDEGNVIKGKFEAKPGKYYLNVYKFDDKNGEYSLLVK”: the “soluble on expression in E. coli” value was “not soluble”.
